Test results from publication PMC3682517.

Biological target: GST-AKAP79
Assay: phage display recovery; RII phage recovered by GST-AKAP79 compared with GST alone; pilot study (supplemental Fig. S1B)

Chain of GST-AKAP79 (P24588 whole entry): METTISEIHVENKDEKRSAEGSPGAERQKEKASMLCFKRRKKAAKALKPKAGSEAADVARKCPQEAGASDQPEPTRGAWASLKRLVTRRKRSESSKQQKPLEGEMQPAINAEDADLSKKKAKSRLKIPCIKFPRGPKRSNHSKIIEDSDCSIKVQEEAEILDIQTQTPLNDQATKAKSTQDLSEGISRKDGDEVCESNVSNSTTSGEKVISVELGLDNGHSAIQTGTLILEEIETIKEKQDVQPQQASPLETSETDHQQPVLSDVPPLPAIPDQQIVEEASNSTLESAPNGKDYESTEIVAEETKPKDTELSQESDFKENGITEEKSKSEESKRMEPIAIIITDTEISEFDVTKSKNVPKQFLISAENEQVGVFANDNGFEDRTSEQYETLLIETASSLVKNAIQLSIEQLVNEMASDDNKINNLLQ
Chain of RII phage: PKA RIIα (residues 1–45) displayed on the T7 capsid protein (P13861 2-404): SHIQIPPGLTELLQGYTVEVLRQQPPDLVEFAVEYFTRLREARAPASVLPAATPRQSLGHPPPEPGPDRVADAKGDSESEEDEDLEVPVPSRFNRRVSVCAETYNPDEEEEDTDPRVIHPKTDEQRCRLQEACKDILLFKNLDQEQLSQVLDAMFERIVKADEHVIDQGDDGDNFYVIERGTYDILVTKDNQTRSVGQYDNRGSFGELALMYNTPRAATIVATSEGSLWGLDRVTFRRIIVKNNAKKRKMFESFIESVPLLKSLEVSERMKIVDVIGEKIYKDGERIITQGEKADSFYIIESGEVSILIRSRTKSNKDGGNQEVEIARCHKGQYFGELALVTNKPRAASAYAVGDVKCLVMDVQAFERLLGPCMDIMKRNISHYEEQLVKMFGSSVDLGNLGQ

RII phage: PKA RIIα (residues 1–45) displayed on the T7 capsid protein (from UniProt P13861 1-45) (domain or fragment)
fold more phage recovered than with GST alone: 300 fold
